Each block holds one molecule with its values, some of them ahead of it.
Experiments:
Tsp-1 [1] = assay: Western blot of Tsp-1/p53 in prostate fibroblasts treated with PC3 conditioned media with or without RAP or PKC inhibitor; format: cell-based; conditions: co-treatment with inhibitor
From the text: FIGS. 6A-6B. Western blot analysis of: (FIG. 6A) Tsp-1 and β-actin expression in prostate fibroblasts that were untreated (−) or treated with conditioned media from PC3 cells alone or in combination with RAP, and (FIG. 6B) Tsp-1, p53 and β-actin expression in prostate fibroblasts that were untreated (−) or treated with conditioned media from PC3 cells alone or in combination with the PKC inhibitor Go 6983 (PKCi).
Thus, in order to determine how prosaposin was able to stimulate the expression of Tsp-1 and p53 in tumor-associated fibroblasts, prostate fibroblasts were treated with PC3-conditioned media in the presence and absence of Receptor Associate Protein (RAP), a competitive inhibitor or LRP1 binding. […] To determine whether prosaposin-mediated stimulation of Tsp-1 utilized this pathway, fibroblasts were treated with CM from PC3 cells in the presence and absence of the PKC inhibitor Gö 6983. […] Thus, it is believed that Prosaposin functions via binding to LRP1.

Tsp-1 [2] = assay: Western blot of Tsp-1 in lung fibroblasts treated with psap peptide alone or with rhRAP or Y27632; format: cell-based; conditions: co-treatment with peptide, rhRAP 25 or 50 μg
Method: FIGS. 8A-8B. Western blot analysis of Tsp-1 and β-actin expression in lung fibroblasts, which were (FIG. 8A) untreated (−) or treated with psap peptide alone or in combination with 25 or 50 μg of rhRAP, and (FIG. 8B) untreated (−) or treated with psap peptide alone or with Y27632.
In order to delineate the pathway leading from LRP1 to Tsp-1 stimulation by prosaposin, two pathways that have been reported to be stimulated by LRP1 under different conditions were chosen to be examined: Rho and Rac.

Tsp-1 [3] = assay: Western blot of Tsp-1 in lung fibroblasts treated with LN4 CM alone or with STI or Rac1 inhibitor; format: cell-based; conditions: lung fibroblasts (W138 cells), co-treatment with LN4 conditioned media
From the text: FIG. 11. Western blot analysis of Tsp-1 and β-actin expression in lung fibroblasts that were untreated (−) or treated with LN4 CM alone or in combination with STI.
FIG. 12. Western blot analysis of Tsp-1 and β-actin expression in lung fibroblasts that were untreated (−) or treated with LN4 CM alone or in combination with Rac1 inhibitor.
Attention was then turned to the mechanism by which PC3M-LN4 cells repress Tsp-1 in the tumor microenvironment. In doing so, LN4 conditioned media (CM) was fractionated over a Cu^2+/heparin sepharose column with increasing concentrations of NaCl. The eluted fractions were used to treat lung fibroblasts and Tsp-1 induction was analyzed by western blot. […] By analyzing the protein content of the eluted fractions by tandem liquid chromatography/mass spectrometry (LC/MS), a protein was identified that was present in the active fractions of LN4 CM, but not present in the adjacent fractions or the fractions eluted with the same NaCl concentrations from PC3 CM. The identified protein was the serine protease PRSS2. […] Finally, the signaling pathway emanating from LRP1 that was mediating the PRSS2-induced repression of Tsp-1 was sought to be delineated. […]

PRSS2 = PRSS2 (Homo sapiens, UniProt P07478); assay: Co-immunoprecipitation of LRP1 peptides with PRSS2; format: binding
Method: (§1) FIGS. 16A-16B. Co-immunoprecipitation of LRP1 peptides with PSAP (FIG. 16A) or PRSS2 (FIG. 16B).
(§2) To map the binding sites on LRP1 that binds to prosaposin (PSAP) and/or PRSS2, peptides derived from binding domain I of LRP1 (SEQ ID NOs: 3 and 7-18) were tested for their ability to co-immunoprecipitate with PSAP or PRSS2.

prosaposin (PSAP) = biological target: T1, prosaposin (PSAP) (Homo sapiens, UniProt P07602); assay: Co-immunoprecipitation of LRP1 peptides with PSAP; format: binding
T1 sequence (P07602 60-524): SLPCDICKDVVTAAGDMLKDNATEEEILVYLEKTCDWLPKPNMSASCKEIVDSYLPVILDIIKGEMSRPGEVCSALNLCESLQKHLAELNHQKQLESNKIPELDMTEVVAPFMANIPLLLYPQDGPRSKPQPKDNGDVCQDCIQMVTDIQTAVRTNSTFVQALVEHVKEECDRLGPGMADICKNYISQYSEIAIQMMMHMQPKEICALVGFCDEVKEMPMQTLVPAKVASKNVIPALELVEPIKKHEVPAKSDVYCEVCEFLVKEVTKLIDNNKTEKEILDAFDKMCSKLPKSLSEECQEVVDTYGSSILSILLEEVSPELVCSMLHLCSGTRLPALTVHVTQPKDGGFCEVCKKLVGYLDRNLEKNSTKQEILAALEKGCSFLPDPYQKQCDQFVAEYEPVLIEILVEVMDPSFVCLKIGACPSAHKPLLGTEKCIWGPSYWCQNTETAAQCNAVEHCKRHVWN
Method: as §1, §2

Chain of PRSS2 (P07478 16-247 limits assumed): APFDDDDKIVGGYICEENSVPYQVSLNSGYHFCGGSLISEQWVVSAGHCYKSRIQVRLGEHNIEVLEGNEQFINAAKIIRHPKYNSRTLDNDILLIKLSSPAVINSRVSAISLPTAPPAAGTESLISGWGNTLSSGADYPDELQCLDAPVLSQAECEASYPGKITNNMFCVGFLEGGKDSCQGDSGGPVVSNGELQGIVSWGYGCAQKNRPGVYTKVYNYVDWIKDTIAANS

Molecule: COc1ccc2c(c1)c(C1=C(c3c[nH]c4ccccc34)C(=O)NC1=O)cn2CCCN(C)C [Gö 6983]
stimulation of Tsp-1 by PC3-conditioned media (Tsp-1 [1]): abolished the stimulation
stimulation of p53 by PC3-conditioned media (Tsp-1 [1]): abolished the stimulation

Molecule: C[C@@H](N)[C@H]1CC[C@H](C(=O)Nc2ccncc2)CC1 [Peptide Y27632, Y27632, reference compound]
effect on stimulation of Tsp-1 by the psap peptide (Tsp-1 [2]): completely abrogated

Molecule: CCN(CC)CCCC(C)Nc1nc(C)cc(Nc2ccc3nc(C)cc(N)c3c2)n1 (racemic) [Rac1 inhibitor, reference compound]
effect on repression of Tsp-1 by LN4 CM (Tsp-1 [3]): Tsp-1 levels were restored to basal levels

binding to PRSS2 (co-immunoprecipitation) (PRSS2; listed as peptide 13): bind to both PRSS2 and PSAP
binding to PSAP (co-immunoprecipitation) (prosaposin (PSAP); listed as peptide 13): bind to both PRSS2 and PSAP
Molecule: FICGCVEGYLLQPDNRSCKAKN [Peptide 13]

binding to PRSS2 (co-immunoprecipitation) (PRSS2; listed as peptide 12): bind to both PRSS2 and PSAP
binding to PSAP (co-immunoprecipitation) (prosaposin (PSAP); listed as peptide 12): bind to both PRSS2 and PSAP
Molecule: YGTCSQLCTNTDGSFICGCVEGYLL [Peptide 12]

B1: STI: serine protease inhibitor able to inhibit all members of the trypsin family (protein, UniProt P01070 25-205, looked up)
Trypsin inhibitor A: DFVLDNEGNPLENGGTYYILSDITAFGGIRAAPTGNERCPLTVVQSRNELDKGIGTIISSPYRIRFIAEGHPLSLKFDSFAVIMLCVGIPTEWSVVEDLPEGPAVKIGENKDAMDGWFRLERVSDDEFNNYKLVFCPQQAEDDKCGDIGISIDHDDGTRRLVVSKNKPLVVQFQKLDKESL
effect on repression of Tsp-1 by LN4 CM (Tsp-1 [3]): completely abrogated the repression of Tsp-1

B2: RAP: Receptor Associate Protein (RAP), a competitive inhibitor or LRP1 binding (protein, UniProt P30533 35-357, looked up)
Alpha-2-macroglobulin …: YSREKNQPKPSPKRESGEEFRMEKLNQLWEKAQRLHLPPVRLAELHADLKIQERDELAWKKLKLDGLDEDGEKEARLIRNLNVILAKYGLDGKKDARQVTSNSLSGTQEDGLDDPRLEKLWHKAKTSGKFSGEELDKLWREFLHHKEKVHEYNVLLETLSRTEEIHENVISPSDLSDIKGSVLHSRHTELKEKLRSINQGLDRLRRVSHQGYSTEAEFEEPRVIDLWDLAQSANLTDKELEAFREELKHFEAKIEKHNHYQKQLEIAHEKLRHAESVGDGERVSRSREKHALLEGRTKELGYTVKKHLQDLSGRISRARHNEL
stimulation of Tsp-1 by PC3-conditioned media (Tsp-1 [1]): no longer stimulated Tsp-1
effect on stimulation of Tsp-1 by the psap peptide (Tsp-1 [2]): blocked the stimulation of Tsp-1 in a dose-dependent fashion

Reference: patent US11840563B2, “Methods of treating cancer by administering inhibitory RNA molecules targeting protease serine 2 (PRSS2) expression” (Children's Medical Center Corporation, priority 2017, dated 2023)
